Results published in patent US20210024640A1 (REMD BIOTHERAPEUTICS, published 2021).
Numbering of substitutions follows the chain as printed. Where “and” joins values, the source holds several entries; their conditions need not be identical. Equal entries are not always repeated. Blank lines part the entries; values can stand above or below the binder they belong to.

Experiments:
[1] = target: T1, cyno OX40 (cyno); test: ELISA, binding to cyno OX40
T1 construct: also called CyOX40

[2] = target: T2, human OX40 (NP_003318) (human, UniProt P43489 29-214, limits assumed); test: OX40L/OX40 blocking ELISA, purified proteins
T2 construct: also called HuOX40; CD134
T2 sequence: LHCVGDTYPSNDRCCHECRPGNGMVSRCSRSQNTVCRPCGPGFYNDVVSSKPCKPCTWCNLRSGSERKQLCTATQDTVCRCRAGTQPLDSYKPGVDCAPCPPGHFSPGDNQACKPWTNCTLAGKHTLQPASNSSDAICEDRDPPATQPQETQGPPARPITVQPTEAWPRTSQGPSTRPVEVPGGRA

[3] = target: T3, OX40 on HT1080 OX40 stable cell line (Homo sapiens (Human), UniProt P43489 29-277); test: cell-based or functional assay
T3 sequence: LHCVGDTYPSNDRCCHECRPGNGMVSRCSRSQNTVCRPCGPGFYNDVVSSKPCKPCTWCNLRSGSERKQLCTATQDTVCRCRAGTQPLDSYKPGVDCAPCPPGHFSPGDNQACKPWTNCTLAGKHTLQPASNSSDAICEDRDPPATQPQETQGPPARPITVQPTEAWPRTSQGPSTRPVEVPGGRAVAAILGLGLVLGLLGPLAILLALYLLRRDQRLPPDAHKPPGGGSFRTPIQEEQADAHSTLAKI

[4] = target: T4, murine OX40 (murine, UniProt P47741 20-211, limits assumed); test: ELISA, murine OX40 binding
T4 construct: also called MuOX40; mouse OX40
T4 sequence (looked up): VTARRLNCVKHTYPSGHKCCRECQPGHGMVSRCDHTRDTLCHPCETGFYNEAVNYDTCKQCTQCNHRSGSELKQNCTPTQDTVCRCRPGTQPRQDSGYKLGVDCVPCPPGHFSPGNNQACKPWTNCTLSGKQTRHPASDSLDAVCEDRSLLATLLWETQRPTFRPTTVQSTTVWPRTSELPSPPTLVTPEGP

[5] = target: T2, human OX40 (NP_003318); test: ELISA, binding to human OX40
[6] = target: T5, OX40-his (Homo sapiens (Human), UniProt P43489 29-214, limits assumed); test: SPR Biacore (summary table; repeats Table 6)
T5 construct: Analyte of the Biacore 8K assay; also called Ag OX40-his; Antigen OX40-his; not shown: His tag
T5 sequence: T2 sequence
Method: (§1) The affinities of purified antibody binding to OX40-his was determined using a Surface Plasmon Resonance (SPR) biosensor, Biacore 8k. Antibodies were immobilized on the sensor chip through capture method. Antigen OX40-his was used as the analyte. The data of dissociation (kd) and association (ka) rate constants were obtained using Biacore 8k evaluation software. The equilibrium dissociation constants (KD) were calculated from the ratio of kd over ka.

[7] = target: T2, human OX40 (NP_003318); test: ELISA, binding to human OX40; remark: listed apart in the source
[8] = target: T5, OX40-his; test: SPR Biacore 8K, antibody captured, OX40-his as analyte
Method: as §1

[9] = target: T3, OX40 on HT1080 OX40 stable cell line; test: cell-based or functional assay; remark: listed apart in the source
[10] = target: T2, human OX40 (NP_003318); test: OX40L/OX40 blocking ELISA, purified proteins; OX40L/OX40 ELISA blocking, purified proteins
[11] = target: T2, human OX40 (NP_003318); test: ELISA, binding to human OX40 (summary table; repeats Table 3)
[12] = target: T3, OX40 on HT1080 OX40 stable cell line; test: cell-based or functional assay; remark: listed apart in the source
[13] = target: T3, OX40 on HT1080 OX40 stable cell line; test: cell-based or functional assay; remark: listed apart in the source

B1: murine antibody A4 (13C2G10F10) (antibody, V domains shown)
VH: EVQLQQSGPELVKPGASVKMSCKASGYTFTSYIMHWVKQKPGQGLEWIGYINPYNDGTKYNEKFKGKATLTSDKSSSTAYMELSSLTSEDSAVYYCANYYGSSYTMDYWGQGTSVTVSS
VL: DIQMTQTTSSLSASLGDRVTISCRASQDIRNYLNWYQQKPDGSVKLLIYYTSRLHSGVPSRFSGSGSGTDYSLTISNLEQEDIATYFCQQGNTLPWTFGGGTKLEIK
notes: also called MAb A4; H4/L4
EC50 [1]: 0.0305 nM
IC50 [2]: 0.0683 nM
HT1080 + OX4OL/IL-8 Antagonist Assay IC50 [3]: 1.35 nM
HT1080 Agonist Assay EC50 (IL-8 secretion) [3]: 8.08 nM
HT1080 Agonist Assay nBMAX [3]: 1.52
binding result [4]: no binding
EC50 [5]: 0.0157 nM and 0.0151 nM

B3: murine antibody A3 (14F2C2D7) (antibody, V domains shown)
VH: QVQLKESGPGLVAPSQSLSITCTVSGFSLSSYGVHWVRQPPGKGLEWLGVIWAGGSTDYNSALMSRLSISKDNSKSQVVLKMNSLQTDDTAMYYCAREEVWDWGQGTLVTVSA
VL: B1 VL with R30S, S43T, H55Q, W96L, G100A, I106L
notes: also called MAb A3; H3/L3
IC50 [10]: 0.0293 nM
EC50 [1]: 0.0171 nM
HT1080 Agonist Assay EC50 (IL-8 secretion) [3]: 6.74 nM
HT1080 Agonist Assay nBMAX [3]: 4.49
binding result [4]: no binding
EC50 [5]: 0.0128 nM and 0.0136 nM

B6: humanized Ab REMD 277.1 (VH2-1/VL2-1) (antibody, human IgG1, kappa, V domains shown)
VH: EVQLVQSGAEVKKPGESLKISCKGSGYTFTSYVMHWVRQMPGKGLEWMGYINPYNDGTKYNEKFKGQVTISADKSISTAYLQWSSLKASDTAMYYCARYYGSNYAMDYWGQGTMVTVSS
VL: EIVLTQSPATLSLSPGERATLSCRASQDIRNYLNWYQQKPGQAPRLLIYYTSRLHSGIPARFSGSGSGTDFTLTISSLEPEDFAVYYCQQGNTLPWTFGQGTKVEIKR
Kd [6]: 13.8 nM
EC50 [7]: 0.96 nM
Kd [8]: 13.8 nM
koff [8]: 0.000848 s⁻¹
kon [8]: 61400 M⁻¹ s⁻¹
EC50 (read off the curve), IL-8 secretion, OX40L-free Ab agonist assay [12]: ~1 nM
HT1080 + OX40L Antagonist Assay IC50 [9]: 1.53 NM

B7: humanized Ab REMD 277.2 (VH2-1/VL5BM) (antibody, human IgG1, kappa, V domains shown)
VH: B6 VH
VL: DIQMTQSPSSLSASVGDRVTISCRASQDIRNYLNWYQQKPGKTVKLLIYYTSRLHSGVPSRFSGSGSGTDYTFTISSLQPEDIATYFCQQGNTLPWTFGGGTKLEIKR
Kd [6]: 5.94 nM
EC50 [7]: 3.1 nM
Kd [8]: 5.94 nM
koff [8]: 0.000119 s⁻¹
kon [8]: 20000 M⁻¹ s⁻¹
HT1080 + OX40L Antagonist Assay IC50 [9]: 3.52 NM

B8: humanized Ab REMD 277 (VH2-1/VL2-2) (antibody, human IgG1, kappa, V domains shown)
VH: B6 VH
VL: B6 VL with L4M, L13A, A19V, Q42G, P44V, I58V, F71Y, F83Y, Y87F
cell-based functional assay in the absence of OX40L, EC50 [13]: 1.56 nM
Kd [6]: 6.3 nM
EC50 [7]: 0.6 nM
Kd [8]: 6.3 nM
koff [8]: 0.000178 s⁻¹
kon [8]: 28200 M⁻¹ s⁻¹
HT1080 + OX40L Antagonist Assay IC50 [9]: 0.479 NM

Continued, values first:

Kd [6]: 9.18 nM
EC50 [7]: 0.028 nM
Kd [8]: 9.18 nM
koff [8]: 0.000865 s⁻¹
kon [8]: 94200 M⁻¹ s⁻¹
HT1080 + OX40L Antagonist Assay IC50 [9]: 109 NM
B2: murine-human chimeric antibody derived from murine antibody A6 (chimeric IgG) (antibody, V domains shown)
VH: B1 VH with I33V, S103N, T105A
VL: B7 VL with S7T, P8T, V15L, G41D, K42G, T72S, F73L, S77N, Q79E, P80Q
notes: also called chimeric OX40 Ab

EC50 [1]: 0.0143 nM
IC50 [2]: 0.0382 nM
HT1080 Agonist Assay EC50 (IL-8 secretion) [3]: 2.8 nM
HT1080 Agonist Assay nBMAX [3]: 3.2
binding result [4]: no binding
EC50 [5]: 0.0081 nM and 0.0079 nM
B4: murine antibody A5 (40H11C2F5) (antibody, V domains shown)
VH: EVQLQQSGPELVKPGASVKISCKASGYTFTENYMNWVKQSHGKSLEWIGDINRNNGGTRYNQKFKGKATLTVDKSSSTDYMELRSLTSEDSAVYYCGGTVVGYFDVWGTGTTVTVSS
VL: B1 VL with T7I, T8I, S9T, A25S, R30S, S43T, H55K
notes: also called MAb A5; H5/L5

EC50 [1]: 0.0446 nM
EC50 [11]: 0.0275 nM
HT1080 Agonist Assay EC50 (IL-8 secretion) [3]: 1.56 nM
HT1080 Agonist Assay nBMAX [3]: 4.54
binding result [4]: no binding
EC50 [5]: 0.0275 nM and 0.0272 nM
HT1080 + OX40L Antagonist Assay IC50 [9]: 1.34 NM
B5: murine antibody A6 (2G2E2D8) (antibody, V domains shown)
VH: B1 VH with I33V, S103N, T105A
VL: B1 VL with S43T
notes: also called MAb A6; Murine A6
